Biological target: cell-surface vimentin (CSV) on mouse embryonic fibroblasts mEF +/+ (mouse (endogenous in mEF)) (UniProt P20152)
Test: AFM single-molecule force spectroscopy

Substance | binding probability (specific adhesion events) (% of force curves) | mean rupture force at 5 um/s [pN]
wild-strain SARS-CoV-2 spike protein RBD (from UniProt P0DTC2) (domain or fragment) | < 10 | –
Brazil P.1 RBD (from UniProt P0DTC2) (domain or fragment) | – | 31.3
South Africa B.1.135 RBD (from UniProt P0DTC2) (domain or fragment) | – | 25.8

Reference: paper PMC10360031
